This is an account of results in patent US20250092426, “CAS ENDONUCLEASES AND RELATED METHODS” (Flagship Pioneering Innovations VII, LLC, published 2025).

For the data set, the target named is T1, CasEnd-20 (synthetic construct).
T1 chain: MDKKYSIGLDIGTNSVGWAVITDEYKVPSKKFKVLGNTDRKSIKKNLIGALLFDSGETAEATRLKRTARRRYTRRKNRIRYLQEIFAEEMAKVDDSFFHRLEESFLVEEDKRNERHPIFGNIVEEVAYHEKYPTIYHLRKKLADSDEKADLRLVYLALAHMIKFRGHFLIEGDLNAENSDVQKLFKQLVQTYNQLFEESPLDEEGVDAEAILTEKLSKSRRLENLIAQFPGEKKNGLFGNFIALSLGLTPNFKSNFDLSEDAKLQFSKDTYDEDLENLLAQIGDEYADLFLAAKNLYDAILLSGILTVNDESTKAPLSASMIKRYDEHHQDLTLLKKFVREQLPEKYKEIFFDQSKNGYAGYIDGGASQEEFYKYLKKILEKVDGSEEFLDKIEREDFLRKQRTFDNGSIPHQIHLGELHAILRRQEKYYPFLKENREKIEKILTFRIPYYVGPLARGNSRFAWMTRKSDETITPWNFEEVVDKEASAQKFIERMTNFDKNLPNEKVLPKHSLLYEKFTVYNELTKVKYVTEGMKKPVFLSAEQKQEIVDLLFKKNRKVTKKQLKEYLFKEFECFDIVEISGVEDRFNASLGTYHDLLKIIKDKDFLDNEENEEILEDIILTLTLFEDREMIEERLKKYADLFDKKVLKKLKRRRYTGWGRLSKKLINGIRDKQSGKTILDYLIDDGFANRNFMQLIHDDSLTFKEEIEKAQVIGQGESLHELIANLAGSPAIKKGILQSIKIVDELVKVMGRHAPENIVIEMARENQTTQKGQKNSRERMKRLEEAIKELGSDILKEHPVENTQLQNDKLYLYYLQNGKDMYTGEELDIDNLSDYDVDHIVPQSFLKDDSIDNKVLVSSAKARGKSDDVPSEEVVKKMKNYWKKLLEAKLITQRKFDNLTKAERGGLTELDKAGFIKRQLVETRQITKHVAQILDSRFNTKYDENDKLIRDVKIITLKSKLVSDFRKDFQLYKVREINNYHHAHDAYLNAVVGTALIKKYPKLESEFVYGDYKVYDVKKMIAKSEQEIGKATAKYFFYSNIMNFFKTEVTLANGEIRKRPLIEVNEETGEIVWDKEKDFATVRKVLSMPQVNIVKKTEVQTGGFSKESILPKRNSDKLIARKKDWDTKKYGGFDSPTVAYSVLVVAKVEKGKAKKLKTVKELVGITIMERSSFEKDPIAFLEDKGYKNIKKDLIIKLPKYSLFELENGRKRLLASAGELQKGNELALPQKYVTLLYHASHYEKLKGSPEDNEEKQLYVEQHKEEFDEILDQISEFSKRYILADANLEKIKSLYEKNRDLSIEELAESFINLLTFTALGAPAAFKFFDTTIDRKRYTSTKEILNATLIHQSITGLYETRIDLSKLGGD
Description: cell_activity; +++; K562, second nick guide SEQ 380; PAM not stated. As for the experimental part:
The ability of the candidate endonucleases, including endonucleases 1-38 (CasEnds 1-38) (set forth in Table 1 and SEQ ID NOS: 1-38, respectively), to mediate target nucleic acid editing in cells was assessed by amplicon sequencing of the endogenous hemoglobin subunit beta (eHBB) gene, wherein the percent of amplicons displaying the intended edit is measured. The editing system is comprised of a template RNA (designed to introduce the Single Nucleotide Polymorphism), a second nick guide RNA, and a fusion protein consisting of retroviral reverse transcriptase and the individual subject Cas endonuclease.
Briefly, 250 ng of plasmid DNA encoding the subject fusion protein (containing one of the subject CasEnds), 250 ng each of plasmid DNA encoding the template RNA and the second nick guide RNA were added to 15 μL Lonza SF buffer containing 250,000 K562 cells. Nucleofection was mediated utilizing program FF-120-DA on a Lonza nucleofector. The day of nucleofection was marked as day 0. At day 3, the cells were harvested and subjected to lysis buffer treatment overnight. Genomic DNA was extracted and used for targeted amplicon sequencing to evaluate the performance of each Cas endonucleases based on their percent edit efficiencies.

B1: HBB template RNA ; HBB protospacer (ssRNA ; dsDNA)
RNA: CAUGGUGCACCUGACUCCUGGUUUUAGAGCUAGAAAUAGCAAGUUAAAAUAAGGCUAGUCCGUUAUCAACUUGAAAAAGUGGCACCGAGUCGGUGCACGGCAGACUUCUCUGCCGGAGUCAGGUGC
DNA 1: CATGGTGCACCTGACTCCTG
DNA 2: CAGGAGTCAGGTGCACCATG
For the molecule B1, the activity was ≥ 100 % of reference.
